Data reported in publication PMC8752837 (2022).

Target: T1, tevBAK (residues 22–186) (human, UniProt Q16611 22-186)
T1 chain: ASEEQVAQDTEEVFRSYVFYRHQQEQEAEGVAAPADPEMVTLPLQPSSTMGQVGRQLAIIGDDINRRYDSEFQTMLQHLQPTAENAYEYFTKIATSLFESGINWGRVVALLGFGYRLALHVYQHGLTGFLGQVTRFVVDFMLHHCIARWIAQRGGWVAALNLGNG
Test: ITC

Binder | Kd [µM]
Ac-EDIIRNIARHLAQWGDSMDRSW-NH2 [W(3)W(5) BID BH3 peptide] | 0.25
Ac-EDIIRNIARHLAQVGDSMDRSI-NH2 [WT BID BH3 peptide] | 22.7

Target: T2, GST-BAK (human)
T2 chain: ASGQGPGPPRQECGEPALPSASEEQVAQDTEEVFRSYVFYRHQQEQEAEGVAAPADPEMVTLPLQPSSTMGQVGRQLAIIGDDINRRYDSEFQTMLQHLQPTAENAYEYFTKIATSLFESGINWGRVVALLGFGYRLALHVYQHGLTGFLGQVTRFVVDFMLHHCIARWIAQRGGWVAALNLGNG
Test: FP

Binder | IC50 [µM]
Ac-EDIIRNIARHLAQVGDSFDRSI-NH2 [F(4) BID BH3 peptide] | 11.9
Ac-EDIIRNIARHLAQWGDSMDRSI-NH2 [W(3) BID BH3 peptide] | 6.6
Ac-EDIIRNIARHLAQVGDSYDRSI-NH2 [Y(4) BID BH3 peptide] | 6.9
Ac-EDIIRNIARHLAQFGDSMDRSI-NH2 [F(3) BID BH3 peptide] | 11.3
Ac-EDIWRNIARHLAQVGDSMDRSI-NH2 [W(0) BID BH3 peptide] | 10.8
Ac-EDIIRNIARHLAQMGDSMDRSI-NH2 [M(3) BID BH3 peptide] | 4.6
Ac-EDIIRNIARHLAQYGDSMDRSI-NH2 [Y(3) BID BH3 peptide] | 6.2
Ac-EDIIRNIARHLAQVGDSMDRSI-NH2 [WT BID BH3 peptide] | 12.2
Ac-EDIIRNIARHLAQVGDSMDRSW-NH2 [W(5) BID BH3 peptide] | 8.8
Ac-EDIIRNIARHLAQVGDSWDRSI-NH2 [W(4) BID BH3 peptide] | 11.5
